# Biological target: V158 high affinity variant of CD16a (FcγRIIIa) (UniProt P08637)
# Experiment: HTRF competition with IgG-d2 on HEK293 cells expressing terbium-labelled FcγRIIIa V158
substance,measurement,value
human IgG1 monoclonal antibody,EC50,0.22 µM

# Reference: US20160024176A1
